Test results published in the supplement of paper PMC9112550, “Optimization of the antimicrobial peptide Bac7 by deep mutational scanning” (BMC Biology, 2022).

What follows are sequences tested on Escherichia coli TOP10 (assay: shrunken log2 fold change of peptide-encoding DNA abundance (4.5 h post-induction vs induction); higher = less antimicrobial activity (less host growth inhibition)). Conditions: time post-induction: 4.5 h; library: site-saturation at positions 5, 18, 19, 20.
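Note: peptides expressed intracellularly from a pBAD plasmid library in pooled LB shake-flask culture, induced with 0.3% L-arabinose, DNA abundance read by NGS, three biological replicates, DESeq2 with apeglm shrinkage.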

| Sequence | shrunken log2 fold change |
| --- | --- |
| RRIRNRPPRLPRPRPRPMHRPRP | -0.0926 |
| RRIRNRPPRLPRPRPRPMIIPRP | 0.0546 |
| RRIRNRPPRLPRPRPRPMINPRP | -0.346 |
| RRIRNRPPRLPRPRPRPMIPPRP | 0.0389 |
| RRIRNRPPRLPRPRPRPMKKPRP | 0.00302 |
| RRIRNRPPRLPRPRPRPMMMPRP | -0.0535 |
| RRIRNRPPRLPRPRPRPMMSPRP | 0.0191 |
| RRIRNRPPRLPRPRPRPMMVPRP | -0.194 |
| RRIRNRPPRLPRPRPRPMNQPRP | -0.123 |
| RRIRNRPPRLPRPRPRPMPDPRP | 0.259 |
| RRIRNRPPRLPRPRPRPMPFPRP | 0.00489 |
| RRIRNRPPRLPRPRPRPMQQPRP | -0.0561 |
| RRIRNRPPRLPRPRPRPMRHPRP | -0.18 |
| RRIRNRPPRLPRPRPRPMSKPRP | -0.197 |
| RRIRNRPPRLPRPRPRPMVSPRP | -0.145 |
| RRIRNRPPRLPRPRPRPNAHPRP | -0.456 |
| RRIRNRPPRLPRPRPRPNANPRP | -0.199 |
| RRIRNRPPRLPRPRPRPNARPRP | 0.0522 |
| RRIRNRPPRLPRPRPRPNCPPRP | -0.361 |
| RRIRNRPPRLPRPRPRPNDHPRP | -0.153 |
| RRIRNRPPRLPRPRPRPNEMPRP | -0.00174 |
| RRIRNRPPRLPRPRPRPNFAPRP | 0.0544 |

| Sequence | shrunken log2 fold change |
| --- | --- |
| RRIRNRPPRLPRPRPRPNFHPRP | -0.048 |
| RRIRNRPPRLPRPRPRPNGEPRP | 0.0257 |
| RRIRNRPPRLPRPRPRPNHCPRP | -0.216 |
| RRIRNRPPRLPRPRPRPNHDPRP | -0.602 |
| RRIRNRPPRLPRPRPRPNHEPRP | -0.00884 |
| RRIRNRPPRLPRPRPRPNKCPRP | -0.466 |
| RRIRNRPPRLPRPRPRPNKRPRP | -0.221 |
| RRIRNRPPRLPRPRPRPNKVPRP | -0.642 |
| RRIRNRPPRLPRPRPRPNLAPRP | -0.137 |
| RRIRNRPPRLPRPRPRPNLIPRP | -0.369 |
| RRIRNRPPRLPRPRPRPNLLPRP | -0.112 |
| RRIRNRPPRLPRPRPRPNMNPRP | -0.265 |
| RRIRNRPPRLPRPRPRPNMQPRP | -0.184 |
| RRIRNRPPRLPRPRPRPNPEPRP | -0.224 |
| RRIRNRPPRLPRPRPRPNPLPRP | 0.0887 |
| RRIRNRPPRLPRPRPRPNPRPRP | 0.286 |
| RRIRNRPPRLPRPRPRPNQAPRP | -0.0207 |
| RRIRNRPPRLPRPRPRPNQFPRP | -0.376 |
| RRIRNRPPRLPRPRPRPNQLPRP | -0.228 |
| RRIRNRPPRLPRPRPRPNQQPRP | -0.0748 |
| RRIRNRPPRLPRPRPRPNQYPRP | -0.712 |
| RRIRNRPPRLPRPRPRPNRQPRP | -0.156 |

| Sequence | shrunken log2 fold change |
| --- | --- |
| RRIRNRPPRLPRPRPRPNVFPRP | -0.43 |
| RRIRNRPPRLPRPRPRPNWKPRP | -0.0062 |
| RRIRNRPPRLPRPRPRPPCGPRP | 0.317 |
| RRIRNRPPRLPRPRPRPPDGPRP | 0.313 |
| RRIRNRPPRLPRPRPRPPDPPRP | 0.497 |
| RRIRNRPPRLPRPRPRPPECPRP | 0.015 |
| RRIRNRPPRLPRPRPRPPFKPRP | -0.325 |
| RRIRNRPPRLPRPRPRPPFMPRP | -0.0578 |
| RRIRNRPPRLPRPRPRPPHTPRP | -0.0383 |
| RRIRNRPPRLPRPRPRPPHVPRP | 0.147 |
| RRIRNRPPRLPRPRPRPPIEPRP | 0.0957 |
| RRIRNRPPRLPRPRPRPPKMPRP | -0.168 |
| RRIRNRPPRLPRPRPRPPKTPRP | -0.103 |
| RRIRNRPPRLPRPRPRPPNFPRP | -0.0236 |
| RRIRNRPPRLPRPRPRPPNVPRP | -0.0463 |
| RRIRNRPPRLPRPRPRPPPLPRP | 0.732 |
| RRIRNRPPRLPRPRPRPPRWPRP | 0.147 |
| RRIRNRPPRLPRPRPRPPSEPRP | -0.147 |
| RRIRNRPPRLPRPRPRPPSMPRP | -0.0213 |
| RRIRNRPPRLPRPRPRPPTPPRP | 0.56 |
| RRIRNRPPRLPRPRPRPPWEPRP | -0.0446 |
| RRIRNRPPRLPRPRPRPPWFPRP | 0.349 |

| Sequence | shrunken log2 fold change |
| --- | --- |
| RRIRNRPPRLPRPRPRPPYMPRP | -1.13 |
| RRIRNRPPRLPRPRPRPQAFPRP | -0.00429 |
| RRIRNRPPRLPRPRPRPQAYPRP | -0.3 |
| RRIRNRPPRLPRPRPRPQCEPRP | 0.0399 |
| RRIRNRPPRLPRPRPRPQCQPRP | -0.0453 |
| RRIRNRPPRLPRPRPRPQDQPRP | -0.222 |
| RRIRNRPPRLPRPRPRPQEHPRP | 0.422 |
| RRIRNRPPRLPRPRPRPQFGPRP | -0.508 |
| RRIRNRPPRLPRPRPRPQFIPRP | -0.125 |
| RRIRNRPPRLPRPRPRPQFMPRP | -0.709 |
| RRIRNRPPRLPRPRPRPQGMPRP | -0.0261 |
| RRIRNRPPRLPRPRPRPQHGPRP | -0.0487 |
| RRIRNRPPRLPRPRPRPQHIPRP | -0.114 |
| RRIRNRPPRLPRPRPRPQHMPRP | -0.605 |
| RRIRNRPPRLPRPRPRPQHVPRP | 0.000105 |
| RRIRNRPPRLPRPRPRPQHWPRP | 0.13 |
| RRIRNRPPRLPRPRPRPQIRPRP | -0.0373 |
| RRIRNRPPRLPRPRPRPQIYPRP | -0.0394 |
| RRIRNRPPRLPRPRPRPQKFPRP | -0.0476 |
| RRIRNRPPRLPRPRPRPQLSPRP | -0.2 |
| RRIRNRPPRLPRPRPRPQPKPRP | 0.0668 |
| RRIRNRPPRLPRPRPRPQPYPRP | -0.0389 |

| Sequence | shrunken log2 fold change |
| --- | --- |
| RRIRNRPPRLPRPRPRPQQEPRP | -0.124 |
| RRIRNRPPRLPRPRPRPQQPPRP | 0.0468 |
| RRIRNRPPRLPRPRPRPQQTPRP | -0.0918 |
| RRIRNRPPRLPRPRPRPQSYPRP | 0.0549 |
| RRIRNRPPRLPRPRPRPQWVPRP | 0.00681 |
| RRIRNRPPRLPRPRPRPQWYPRP | -0.209 |
| RRIRNRPPRLPRPRPRPQYEPRP | -0.117 |
| RRIRNRPPRLPRPRPRPQYKPRP | -0.876 |
| RRIRNRPPRLPRPRPRPQYLPRP | -0.123 |
| RRIRNRPPRLPRPRPRPRAQPRP | 0.188 |
| RRIRNRPPRLPRPRPRPRAVPRP | 1.21 |
| RRIRNRPPRLPRPRPRPRCGPRP | 0.0586 |
| RRIRNRPPRLPRPRPRPRCMPRP | -0.5 |
| RRIRNRPPRLPRPRPRPREQPRP | -0.00697 |
| RRIRNRPPRLPRPRPRPRFTPRP | -0.286 |
| RRIRNRPPRLPRPRPRPRGDPRP | 0.131 |
| RRIRNRPPRLPRPRPRPRIIPRP | -0.425 |
| RRIRNRPPRLPRPRPRPRKEPRP | -0.0425 |
| RRIRNRPPRLPRPRPRPRKPPRP | -0.0565 |
| RRIRNRPPRLPRPRPRPRMSPRP | -0.238 |
| RRIRNRPPRLPRPRPRPRMYPRP | -0.613 |
